Test results taken from patent US10100120B2, “Antibody which specifically binds to human CRTH2” (KYOWA HAKKO KIRIN CO., LTD, priority 2015, dated 2018).

Assays:
human eosinophils [1] = assay: Eosinophil depletion (cytotoxic) activity in human peripheral blood cells, flow cytometry; type: cell-based; conditions: 37° C., 20 hours
Experimental: Human peripheral blood collected by adding a heparin sodium injection liquid was centrifuged at 4° C. and 1500 rpm for 30 minutes, and the plasma was recovered.
After the plasma was recovered, PBS (NACALAI TESQUE, Inc.) was added to the pellet containing the red blood up to the original volume of blood and the pellet was suspended. Next, to 1 mL of the suspension, 10 mL of hemolyzing solution [solution obtained by diluting 10×RBC Lysis buffer (eBioscience) 10 times with sterile water] was added to be mixed by inversion. The resultant was allowed to stand at room temperature for 10 minutes and centrifuged at room temperature and 1500 rpm for 5 minutes and washed twice with PBS after the supernatant was removed therefrom.
Thereafter, the cell pellet was suspended with the recovered plasma and the cells were seeded in a 48-well plate at 300 μL/well, each of chLym2, humanized Lym2 antibodies LV0HV0, LV0HV1, and LV0HV2a, or an isotype control antibody [IgG1 antibody prepared according to the method described in Example 5 using a vector encoding an anti-2,4-dinitrophenol (DNP) IgG1 antibody described in Clin Cancer Res 2005, 11(8), 3126 to 3135 (hereinafter, referred to as anti-DNP IgG1 antibody)] were added at each final concentrations of 1000, 100, 33, 11, 3.7, 1.2, 0.4, and 0.01 ng/mL to cause a reaction in a 5% CO2 incubator at 37° C. for 20 hours.
After the reaction, the cell fluid in each well was recovered, 10 mL of SM was added thereto, 200 μL per sample of CountBright Absolute Counting Beads, for flow cytometry (Molecular Probes) was added as control beads, and the fluid was centrifuged at 4° C. and 2000 rpm for 10 minutes, and then the supernatant was removed. The resultant was washed twice with SM, 10000 μg/mL of IgG from human serum (Sigma-Aldrich Co. LLC) diluted with SM was added at 300 μL/sample and suspended to cause a reaction at 4° C. for 30 minutes. […]
The cells were washed twice with SM, suspended by SM containing 1% of 7-AAD Staining Solution (BD Biosciences), allowed to stand at 4° C. for 10 minutes, and the fluorescent intensity was analyzed by flow cytometry (BD Biosciences, FACS CantoII).
Human eosinophils were detected as 7-AAD negative siglec8-PE positive fractions in granulocyte fractions of FSC-SSC deployment. Human basophils were detected as 7-AAD negative fractions, CD123-PC-Cy7 positive fractions, FcεRI-APC positive fractions in lymphocyte fractions of FSC-SSC deployment. The cell depletion activity was evaluated by analyzing the count number of each cell per a certain number of CountBright. […]

human eosinophils [2] = assay: Reactivity against human eosinophils, flow cytometry; type: binding; conditions: 0.12-10 μg/mL, 4° C., 1 hour; FIG. 8
Experimental: To human peripheral blood collected by adding a heparin sodium injection liquid, the same amount of physiological saline for injection as the human peripheral blood was added thereto and mixed with each other. 15 mL of Ficoll-Paque PREMIUM 1.084 (GE Healthcare) was added to a 50 mL centrifuge tube, 30 mL of the above described human peripheral blood diluted with physiological saline was overlaid thereon, and centrifugation was performed at room temperature and 1500 rpm for 30 minutes. […]
After the number of cells was counted, eosinophils were isolated by a negative selection method using CD16 MicroBeads, human (Miltenyi Biotec) according to the attached instructions. […]
After the cells were washed, CELL LAB Mouse Anti-Rat Kappa (kappa light chain specific) FITC (Beckman Coulter Inc.) diluted with SM was added to wells to which Lym2 antibody or BM16 was added and CELL LAB Goat Anti-Mouse IgG (γ chain specific) Fluorescein (FITC) Conjugate (Beckman Coulter Inc.) diluted with SM was added to wells to which 301108 was added at a final concentration of 10 μg/mL respectively to cause a reaction at 4° C. for 1 hour. The cells were washed again and suspended with SM, and the fluorescent intensity was analyzed by flow cytometry (BD Biosciences, FACS CantoII).

B1: LV0HV1: humanized Lym2 antibody, VL LV0 (SEQ ID NO: 33), VH HV1 (SEQ ID NO: 51) (antibody, V domains shown)
VH: EVQLVESGGGVVQPGRSLRLSCAASGFTFSNYYMAWVRQAPGKGLEWVATISYDGSSTYYRDSVKGRFTISRDNAKNSLYLQMNSLRAEDTATYYCARHRGYYYSGAGYFDYWGQGTMVTVSS
VL: DIVMTQTPLSLPVTPGESASISCRSSQSLEYSDGYTYLEWYLQKPGQSPQVLIYGVSNRFSGVPDRFSGSGSGTDFTLKISRVEAEDVGVYYCFQATHDPLTFGQGTKLEIK
cytotoxic activity against eosinophils (human eosinophils [1]; Example 8, 0.01-1000 ng/mL, FIG. 3): comparable to the chimeric Lym2 antibody chLym2 | removal of eosinophils (human eosinophils [1]; Example 14, 0.1-1000 ng/mL, FIG. 11): removed

B2: Lym2 antibody: rat anti-human CRTH2 monoclonal antibody from hybridoma Lym2, rat IgG2b; VH SEQ ID NO: 17, VL SEQ ID NO: 19 (antibody, listed as Rattus norvegicus, V domains shown)
VH: EVQLVESGGGLVQPGRSMKLSCAASGFTFSNYYMAWVRQAPKKGLEWVATISYDGSSTYYRDSVKGRFTISRDNAKSTLYLQMDSLRSEDTATYYCARHRGYYYSGAGYFDYWGQGVMVTVSS
VL: DVVLTQTPVSLSVTLGDQASISCRSSQSLEYSDGYTYLEWYLQKPGQSPQVLIYGVSNRFSGVPDRFIGSGSGTDFTLKISRVEPEDLGVYYCFQATHDPLTFGSGTKLEIK
reactivity against human eosinophils (human eosinophils [2]): stronger reactivity
